Results reported in article PMC9246220.

B1: hmpA promoter probe (dsDNA)
DNA 1: CAATAAATTAGGTTTTGGCATGCAATCTGCTCATTAAGAAGGCTTGTGTAGAGTGGCTCA
DNA 2: TGAGCCACTCTACACAAGCCTTCTTAATGAGCAGATTGCATGCCAAAACCTAATTTATTG
B2: tcpP promoter probe (dsDNA)
DNA 1: GCAATTAAGTTCTCATTATCAACTGCAGAATTAGATTGCAAATAATTATATTAAAAAAAA
DNA 2: TTTTTTTTAATATAATTATTTGCAATCTAATTCTGCAGTTGATAATGAGAACTTAATTGC

Biological target: AphB C235S-His6 (Vibrio cholerae, UniProt Q9KT56 1-299, C235S)
Assay: EMSA; 0-2 uM protein; affinity similar to wild type; 20 nM DNA, 10 mM Tris-HCl pH 7.5, 1 mM EDTA, 50 mM KCl, 100 ug/ml BSA, 10 ug/ml poly dI-dC, 100 mM DTT when indicated; 20 min at 25 C; 5% PAGE in 0.5X TAE
Details: protein: recombinant; chain copies: 2; label: 5'-biotin; blunt

Row | Binder | binding result
1 | B1 | binds
2 | B2 | binds
